Drawing on US20090010961A1, this text covers Reciprocal serum dilution-plaque reduction neutralization titers (50% endpoint) (reciprocal dilution) for 1 substance.

What all share (assay): cell-based or functional assay
Test [1] has as its target E protein of wild-type DEN-1 16007 virus (dengue-1 virus, strain 16007) (UniProt P27909).
The target in test [2] is E protein of wild-type DEN-3 16562 virus (dengue-3 virus, strain 16562) (UniProt P27915).
Test [3] has as its target E protein of wild-type DEN-4 1036 virus (dengue-4 virus, strain 1036) (UniProt P09866).

Consider “monoclonal antibody 3H5 (specific for DEN-2 E protein)”, for which the values for the Reciprocal serum dilution-plaque reduction neutralization titers (50% endpoint) (reciprocal dilution) in test [1], in test [2] and in test [3] were 20, 40 and less than 20, respectively.
